Assay results taken from US20210054047A1, “NOVEL ANTICANCER FUSION PROTEIN AND USE THEREOF” (KOREA INSTITUTE OF SCIENCE AND TECHNOLOGY, priority 2018, published 2021).

How the values were obtained:
DR4 = target: T1, DR4 (Homo sapiens, UniProt O00220); assay: SPR binding to immobilized DR4-Fc
T1 construct: purchased R&D systems 347-DR-100
Protocol: (§1) Binding experiments of TTPN and mTRAIL to TRAIL receptors DR4 and DR5 were analyzed at 25° C. using a surface plasmon resonance apparatus (SR7500 DC, Reichert Inc., NY, USA). DR4 and DR5-fc chimeric proteins (R&D systems 347-DR-100, 631-T2-100) were immobilized on the surface of the Planar Protein A sensor chip (Reichert, 13206069) and the receptors were coated at a level of 300 to 500 resonance units. SPR kinetic titrations were performed by adding 250 μl of TTPN and mTRAIL with different concentrations in the range of 1.56 to 400 nM and 0.1 to 25.6 μM, respectively, increasing by four times. Each analyte was run at 50 μL/min using running and sample buffer (0.5 M Tris-HCl (pH 7.4), 150 mM NaCl, 0.005% Tween 20), and binding of the ligand to the receptor was performed and monitored in real time. For titration sensorgrams, a simple 1:1 Langmuir interaction model (A+B↔AB) was applied using the data analysis program Scrubber 2.0 (BioLogic Software, Australia, and KaleidaGraph Software, Australia) and CLAMP software.
(§2) The affinity KD was determined from the formula of KD=kd/ka. Results are based on representative sensorgrams obtained from saturation binding reactions averaged over at least three independent runs of SPR measurements (FIG. 31).

DR5 [1] = target: T2, DR5 (Homo sapiens, UniProt O14763); assay: SPR binding to immobilized DR5-Fc; details: 25° C.
T2 construct: purchased R&D systems 631-T2-100
T2 sequence (O14763 with tags, fused parts or gaps limits assumed): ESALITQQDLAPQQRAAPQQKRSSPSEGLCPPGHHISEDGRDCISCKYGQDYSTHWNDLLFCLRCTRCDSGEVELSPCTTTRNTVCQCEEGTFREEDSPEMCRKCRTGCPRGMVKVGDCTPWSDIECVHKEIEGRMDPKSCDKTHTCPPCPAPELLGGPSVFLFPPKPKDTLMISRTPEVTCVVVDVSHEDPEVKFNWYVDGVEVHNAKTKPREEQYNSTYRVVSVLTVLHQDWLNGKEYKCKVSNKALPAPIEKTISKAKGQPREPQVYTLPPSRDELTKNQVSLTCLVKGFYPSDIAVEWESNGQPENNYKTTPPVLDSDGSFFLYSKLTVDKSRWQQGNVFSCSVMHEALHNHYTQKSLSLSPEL
Protocol: as §1, §2

HEK293T cells = assay: Cell viability, CCK-8 assay, HEK293T normal cells; assay type: cell-based; details: HEK293T normal cells (FIG. 18)
Protocol: After culturing for 24 hours, cell viability was measured using a cell counting kit (CCK)-8 assay (Dojindo Molecular Technologies, Gaithersburg, Md.). The plate was then read with an absorbance microplate reader (Spectramax 340, Molecular Devices Corporation) at a wavelength of 450 nm and 50% effective by regression analysis using SigmaPlot software (Systat Software, Inc., San Jose, Calif.). The concentration value was calculated.

HepG2 tumor = assay: TUNEL analysis of HepG2 tumor tissue; assay type: in vivo, mouse; details: 15th day after first injection
From the text: In the evaluation of the anti-tumor effect of the present invention, BALB/c nude male mice (6-7 weeks old) were used as an animal model. Particularly, HT29 cells (5×10^6) and HepG2 cells (5×10^6) were subcutaneously inoculated into the left dorsal flank of BALB/c nude mice, respectively. After a volume of tumors reached ˜80-100 mm^3, mice were randomly divided into the 14 following five treatment groups (6 mice/group); DOX-TTPNs, DOX-FTNs, free DOX, empty TTPNs, and buffer. Mice were intravenously injected five times, once every 2 days, and volume of tumors was determined as 1/2(Length×Width^2). Apoptotic cell death in tumor tissues was analyzed using TUNEL staining (In situ Cell Death Detection kit; Roche), and cells were stained with DAPI (4′,6-diamidino-2-phenylindole), as previously described (Kih et al., Biomaterials 180: 67-77, 2018). Apoptotic cells were visualized under a Nikon Eclipse Ti microscope (Nikon) and quantified as the number of TUNEL-positive cells per total number of cells using ImageJ software. […]
In addition, to investigate whether tumor growth inhibition by TTPN is induced by apoptosis-inducing activity on tumor cells, tumor tissues from the treated mice were analyzed. On the 15th day after the first injection, mice were euthanized, and apoptosis of tumor tissues was analyzed using terminal deoxynucleotidyl transferase dUTP nick end labeling (TUNEL) staining.

HT29 cells = assay: Annexin V early apoptosis flow cytometry, HT29; assay type: cell-based, human; details: HT29, low concentrations, 24 hours
Protocol: HepG2, HT29, or MCF7 cells (1.5×10^4) were cultured in a 96-well plate for 1 day, after which DOX-TTPNs, DOX-FTNs, free DOX, empty TTPNs, or buffer was added to each well. After 24 hours, cell viability was measured using a CCK-8 assay (Dojindo Molecular Technologies) according to the manufacturer's instructions. For analysis of early apoptosis, HT29 cells in 6-18 well culture plate were treated with DOX-TTPNs, free DOX, empty TTPNs, or buffer for 24 hours. Thereafter, cells were incubated with Alexa Fluor 488-conjugated annexin V (Invitrogen) 20 for 15 minutes, then analyzed using an Accuri™ C6 flow cytometer (BD Biosciences) and FlowJo 21 v10 software.

[2] = test system: cleaved form of caspase-3; assay: Western blot of HT29 lysates: cleaved caspase-3; assay type: cell-based, human; details: HT29, 50 nM, 24 hours
Protocol: (§3) After incubating HT29 cells with 50 nM DOX-TTPNs, DOX-FTNs, free DOX, or buffer for 24 hours, cells were lysed with radioimmunoprecipitation assay (RIPA) buffer (Cell Signaling Technology) and the concentration of proteins was measured using a DC protein assay kit (Bio-Rad). Equal amounts of proteins (30 μg) were resolved by SDS-PAGE and transferred to nitrocellulose membranes. After blocking with 5% skim milk in Tris-buffered saline containing 0.1% Tween-20 (TBST), membranes were incubated first with anti-Cl-PARP, anti-Cl-caspase-6, anti-cFLIP, anti-Bcl-xL, anti-XIAP, anti-Cl-caspase-3, or anti-GAPDH primary antibody (Cell Signaling Technology), and then with anti-mouse or anti-rabbit secondary antibodies (Sigma-Aldrich), as appropriate. Immunoreactive proteins were visualized using enhanced chemiluminescence (ECL) chemical reagents (Bio-Rad) and ChemiDoc (Bio-Rad), and were analyzed using ImageJ software.

PARP = assay: Western blot of HT29 lysates: PARP; assay type: cell-based, human; details: HT29, 24 hours
Protocol: as §3

DR5 [3] = assay: Western blot time course of DR5 levels in HT29; assay type: cell-based, human; details: HT29, 4, 12 and 24 hours
HT29 tumor = assay: Antitumor efficacy, HT29 xenograft; assay type: in vivo, mouse; details: i.v. five times every 2 days, DOX-TTPNs 30 mg/kg, DOX 0.4 mg/kg, DOX-FTNs 15 mg/kg, empty TTPNs 30 mg/kg
Protocol: To this end, HT29 cells were implanted in mice, and after tumor volumes reached approximately 80˜100 mm^3, mice were intravenously injected with 30 mg/kg of DOX-TTPNs (equivalent to a DOX dose of 0.4 mg/kg), 0.4 mg/kg of DOX, 15 mg/kg of DOX-FTNs (equivalent to the number of moles of ferritin in a dose of TTPNs), or 30 mg/kg of empty TTPNs (equivalent to the number of moles of TRAIL in a dose of TTPNs) five times every 2 days, respectively.

[4] = Transmission electron microscopy (TEM) size; assay type: physicochemical
Protocol: TEM analyses of TTPN and wtFTN were imaged by bio transmission electron microscopy (Hitachi). […] The hydrodynamic sizes of TTPN-DOX and TTPN were analyzed by dynamic light scattering (DLS) using a Zetasizer Nano ZS system (Malvern Instruments, Ltd., UK), as previously described (Zidi et al., Med. Oncol. 2010, 27(2): 185-198, 2010).

T1 sequence (O00220 with tags, fused parts or gaps limits assumed): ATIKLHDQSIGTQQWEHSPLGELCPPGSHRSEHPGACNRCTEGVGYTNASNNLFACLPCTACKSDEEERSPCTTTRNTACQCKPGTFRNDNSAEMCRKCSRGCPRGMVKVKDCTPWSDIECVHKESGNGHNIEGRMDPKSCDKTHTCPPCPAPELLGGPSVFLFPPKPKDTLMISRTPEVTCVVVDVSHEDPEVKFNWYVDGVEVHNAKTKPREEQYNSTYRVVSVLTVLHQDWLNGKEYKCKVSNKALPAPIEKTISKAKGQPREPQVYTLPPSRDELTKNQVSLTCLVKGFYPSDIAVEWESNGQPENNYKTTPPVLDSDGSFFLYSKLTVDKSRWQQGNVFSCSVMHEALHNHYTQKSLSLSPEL

- ka (DR4; DR4-Fc immobilized, 25° C.): 3.23 (±0.26) · 10^4 M^−1 · S^−1
- kd (DR4; DR4-Fc immobilized, 25° C.): 2.42 (±0.48) · 10^−5 s^−1
- increased affinity compared with monomeric TRAIL (DR4; for DR4 and DR5): up to 330 fold
- ka (DR5 [1]): 6.62 (±4.19) · 10^4 M^−1 · S^−1
- kd (DR5 [1]): 1.49 (±1.13) · 10^−5 s^−1
Substance: TTPN: protein nanocage presenting TRAIL as natural-like homo-trimers; TRAIL 95-281 fused by linker peptide to human ferritin heavy chain
- apoptosis (HEK293T cells): low apoptosis rate
- TUNEL-positive tumor cells (HepG2 tumor): 84.4%
- induction of early apoptosis (HT29 cells): ineffective in inducing apoptosis
- cleaved caspase-3 (and PARP) expression [2]: little change
- increase in PARP relative to buffer-treated controls (defined as 1) (PARP): 457 fold
- DR5 expression levels over time (DR5 [3]): no significant change
- decrease of tumor volumes (HT29 tumor): no significant tumor-inhibition effect
- average size (TEM) [4]: 24-28 nm
